This is an account of results in patent US20240400715A1 (VIBRANT PHARMA, published 2024).

Several values for one entry are separate records, joined by “and”; a condition that tells them apart may be missing. Equal entries are not always repeated.

The target in test [1] is T1, human CD3ε/δ (ACRO systems, CDD-H52W1) (human, UniProt P07766 23-126; P04234 22-105).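 Note: bispecific antibodies captured on AHIC biosensors to a 1.5 nm loading signal, in PBST with 0.02% detergent.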
T1 construct: Bought protein; also called human CD3ϵ/CD3δ; human CD3 epsilon/delta antigen
Kind of test: BLI, antibody captured, antigen in solution. (Biolayer interferometry detects binding as a change in optical thickness at a sensor tip.)
Protocol: The bispecific antibodies were diluted to 5 ag/ml, and 1.5 nm protein was coupled to the surface of the AHIC sensor chip through 0.02% PBST.

Test [2] concerns the target T2, human CD3 on Jurkat cells (human, UniProt P07766 23-207; P04234 22-171; P09693 23-182).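 Note: flow cytometric binding of bispecific antibodies to Jurkat T cells, threefold serial dilutions incubated half an hour in the cold, EC50 taken from the fitted binding curve.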
T2 construct: whole, on cells; CD3 complex as on Jurkat (Clone E6-1) cells; also called CD3 expressing cells (Jurkat)
Nature of the test: FACS, Jurkat cells. (In general: A flow cytometer gives signals particle by particle.)

B1: Fab (Heavy)-Knob+Fab (Light)-Hole-CEA (208) (bispecific antibody, human IgG4 S228P, kappa, F234A L235A)
heavy: EVKLLESGGGLVQPKGSLKLSCAASGFTFNTYAMNWVRQAPGKGLEWVARIRSKYNNYATYYADSVKDRFTISRDDSQSILYLQMNNLKTEDTAMYYCVRHGNFGNSYVSWFAYWGQGTLVTVSSASTKGPSVFPLAPCSRSTSESTAALGCLVKDYFPEPVTVSWNSGALTSGVHTFPAVLQSSGLYSLSSVVTVPSSSLGTKTYTCNVDHKPSNTKVDKRVESKYGPPCPPCPAPEAAGGPSVFLFPPKPKDTLMISRTPEVTCVVVDVSQEDPEVQFNWYVDGVEVHNAKTKPREEQFNSTYRVVSVLTVLHQDWLNGKEYKCKVSNKGLPSSIEKTISKAKGQPREPQVYTLPPCQEEMTKNQVSLWCLVKGFYPSDIAVEWESNGQPENNYKTTPPVLDSDGSFFLYSRLTVDKSRWQEGNVFSCSVMHEALHNHYTQKSLSLSL
chain: QAVVTQESALTTSPGETVTLTCRSSTGAVTTSNYANWVQEKPDHLFTGLIGGTNKRAPGVPARFSGSLIGDKAALTITGAQTEDEAIYFCALWYSNLWVFGGGTKVEIKRTVAAPSVFIFPPSDEQLKSGTASVVCLLNNFYPREAKVQWKVDNALQSGNSQESVTEQDSKDSTYSLSSTLTLSKADYEKHKVYACEVTHQGLSSPVTKSFNRGECESKYGPPCPPCPAPEAAGGPSVFLFPPKPKDTLMISRTPEVTCVVVDVSQEDPEVQFNWYVDGVEVHNAKTKPREEQFNSTYRVVSVLTVLHQDWLNGKEYKCKVSNKGLPSSIEKTISKAKGQPREPQVCTLPPSQEEMTKNQVSLSCAVKGFYPSDIAVEWESNGQPENNYKTTPPVLDSDGSFFLVSRLTVDKSRWQEGNVFSCSVMHEALHNRFTQKSLSLSLGGGGSGGGGSEVQLVESGGGFVQAGESLTLSCTSSTLTFTPYRMAWYRQAPGKQRDLVADISSGDGRTTNYADFAKGRFTISRDNIKNTVFLRMTNLKPEDTAVYYCNTFVSFVGIARSWGQGTQVTVSS
notes: Two-chain format; human IgG4 knob-into-hole Fc
As a reminder, the Kd is the equilibrium constant for the complex coming apart. The low end stands for higher affinity, the high end for lower affinity. For orientation: koff means a measure of how fast the partners let go of each other. Usually kon stands for the rate constant with which the complex forms. A high value points to fast association. The term EC50 denotes the concentration needed to bring the measured effect to its halfway point. Lower therefore signals a more potent agent. In test [1], B1 registered a Kd of 2.82 nM, an off-rate (koff) of 0.000642 s⁻¹ and a kon of 228000 M⁻¹ s⁻¹. Further, the EC50 in test [2] was 0.917 µg/mL and 7.06 nM.

B2: Fab (Light)-Knob-CEA+Fab (Heavy)-Hole (209) (bispecific antibody, human IgG4 S228P, kappa, F234A L235A)
chain: QAVVTQESALTTSPGETVTLTCRSSTGAVTTSNYANWVQEKPDHLFTGLIGGTNKRAPGVPARFSGSLIGDKAALTITGAQTEDEAIYFCALWYSNLWVFGGGTKVEIKRTVAAPSVFIFPPSDEQLKSGTASVVCLLNNFYPREAKVQWKVDNALQSGNSQESVTEQDSKDSTYSLSSTLTLSKADYEKHKVYACEVTHQGLSSPVTKSFNRGECESKYGPPCPPCPAPEAAGGPSVFLFPPKPKDTLMISRTPEVTCVVVDVSQEDPEVQFNWYVDGVEVHNAKTKPREEQFNSTYRVVSVLTVLHQDWLNGKEYKCKVSNKGLPSSIEKTISKAKGQPREPQVYTLPPCQEEMTKNQVSLWCLVKGFYPSDIAVEWESNGQPENNYKTTPPVLDSDGSFFLYSRLTVDKSRWQEGNVFSCSVMHEALHNHYTQKSLSLSLGGGGSGGGGSEVQLVESGGGFVQAGESLTLSCTSSTLTFTPYRMAWYRQAPGKQRDLVADISSGDGRTTNYADFAKGRFTISRDNIKNTVFLRMTNLKPEDTAVYYCNTFVSFVGIARSWGQGTQVTVSS
heavy: EVKLLESGGGLVQPKGSLKLSCAASGFTFNTYAMNWVRQAPGKGLEWVARIRSKYNNYATYYADSVKDRFTISRDDSQSILYLQMNNLKTEDTAMYYCVRHGNFGNSYVSWFAYWGQGTLVTVSSASTKGPSVFPLAPCSRSTSESTAALGCLVKDYFPEPVTVSWNSGALTSGVHTFPAVLQSSGLYSLSSVVTVPSSSLGTKTYTCNVDHKPSNTKVDKRVESKYGPPCPPCPAPEAAGGPSVFLFPPKPKDTLMISRTPEVTCVVVDVSQEDPEVQFNWYVDGVEVHNAKTKPREEQFNSTYRVVSVLTVLHQDWLNGKEYKCKVSNKGLPSSIEKTISKAKGQPREPQVCTLPPSQEEMTKNQVSLSCAVKGFYPSDIAVEWESNGQPENNYKTTPPVLDSDGSFFLVSRLTVDKSRWQEGNVFSCSVMHEALHNRFTQKSLSLSL
notes: as for B1
Consider B2, for which, in test [1], binding was characterised by a dissociation constant (Kd) of 2.01 nM, the off-rate constant (koff) was 0.000338 s⁻¹ and the kon stood at 168000 M⁻¹ s⁻¹. The EC50 in test [2] is 0.866 µg/mL and 6.66 nM.

B3: CEA-Knob-Fab-+Hole (107) (bispecific antibody, human IgG4 S228P, kappa, F234A L235A)
heavy: EVQLVESGGGFVQAGESLTLSCTSSTLTFTPYRMAWYRQAPGKQRDLVADISSGDGRTTNYADFAKGRFTISRDNIKNTVFLRMTNLKPEDTAVYYCNTFVSFVGIARSWGQGTQVTVSSESKYGPPCPPCPAPEAAGGPSVFLFPPKPKDTLMISRTPEVTCVVVDVSQEDPEVQFNWYVDGVEVHNAKTKPREEQFNSTYRVVSVLTVLHQDWLNGKEYKCKVSNKGLPSSIEKTISKAKGQPREPQVYTLPPCQEEMTKNQVSLWCLVKGFYPSDIAVEWESNGQPENNYKTTPPVLDSDGSFFLYSRLTVDKSRWQEGNVFSCSVMHEALHNHYTQKSLSLSLGGGGSGGGGEVKLLESGGGLVQPKGSLKLSCAASGFTFNTYAMNWVRQAPGKGLEWVARIRSKYNNYATYYADSVKDRFTISRDDSQSILYLQMNNLKTEDTAMYYCVRHGNFGNSYVSWFAYWGQGTLVTVSSASTKGPSVFPLAPCSRSTSESTAALGCLVKDYFPEPVTVSWNSGALTSGVHTFPAVLQSSGLYSLSSVVTVPSSSLGTKTYTCNVDHKPSNTKVDKRV
chain: ESKYGPPCPPCPAPEAAGGPSVFLFPPKPKDTLMISRTPEVTCVVVDVSQEDPEVQFNWYVDGVEVHNAKTKPREEQFNSTYRVVSVLTVLHQDWLNGKEYKCKVSNKGLPSSIEKTISKAKGQPREPQVCTLPPSQEEMTKNQVSLSCAVKGFYPSDIAVEWESNGQPENNYKTTPPVLDSDGSFFLVSRLTVDKSRWQEGNVFSCSVMHEALHNRFTQKSLSLSL
light: QAVVTQESALTTSPGETVTLTCRSSTGAVTTSNYANWVQEKPDHLFTGLIGGTNKRAPGVPARFSGSLIGDKAALTITGAQTEDEAIYFCALWYSNLWVFGGGTKVEIKRTVAAPSVFIFPPSDEQLKSGTASVVCLLNNFYPREAKVQWKVDNALQSGNSQESVTEQDSKDSTYSLSSTLTLSKADYEKHKVYACEVTHQGLSSPVTKSFNRGEC
notes: Anti-CD3 TA1 Fab + anti-CEA VHH C17 on human IgG4 knob-into-hole Fc
Take B3: in test [1], the Kd came to 2.23 nM, the koff worked out at 0.000803 s⁻¹ and the on-rate constant (kon) came out at 360000 M⁻¹ s⁻¹. Also, the EC50 in test [2] was 2.8 µg/mL and 21.6 nM.

B4: Knob-Fab+CEA-Hole (108) (bispecific antibody, human IgG4 S228P, kappa, F234A L235A)
heavy: ESKYGPPCPPCPAPEAAGGPSVFLFPPKPKDTLMISRTPEVTCVVVDVSQEDPEVQFNWYVDGVEVHNAKTKPREEQFNSTYRVVSVLTVLHQDWLNGKEYKCKVSNKGLPSSIEKTISKAKGQPREPQVYTLPPCQEEMTKNQVSLWCLVKGFYPSDIAVEWESNGQPENNYKTTPPVLDSDGSFFLYSRLTVDKSRWQEGNVFSCSVMHEALHNHYTQKSLSLSLGGGGSGGGGSEVKLLESGGGLVQPKGSLKLSCAASGFTFNTYAMNWVRQAPGKGLEWVARIRSKYNNYATYYADSVKDRFTISRDDSQSILYLQMNNLKTEDTAMYYCVRHGNFGNSYVSWFAYWGQGTLVTVSSASTKGPSVFPLAPCSRSTSESTAALGCLVKDYFPEPVTVSWNSGALTSGVHTFPAVLQSSGLYSLSSVVTVPSSSLGTKTYTCNVDHKPSNTKVDKRV
chain: EVQLVESGGGFVQAGESLTLSCTSSTLTFTPYRMAWYRQAPGKQRDLVADISSGDGRTTNYADFAKGRFTISRDNIKNTVFLRMTNLKPEDTAVYYCNTFVSFVGIARSWGQGTQVTVSSESKYGPPCPPCPAPEAAGGPSVFLFPPKPKDTLMISRTPEVTCVVVDVSQEDPEVQFNWYVDGVEVHNAKTKPREEQFNSTYRVVSVLTVLHQDWLNGKEYKCKVSNKGLPSSIEKTISKAKGQPREPQVCTLPPSQEEMTKNQVSLSCAVKGFYPSDIAVEWESNGQPENNYKTTPPVLDSDGSFFLVSRLTVDKSRWQEGNVFSCSVMHEALHNRFTQKSLSLSL
light: QAVVTQESALTTSPGETVTLTCRSSTGAVTTSNYANWVQEKPDHLFTGLIGGTNKRAPGVPARFSGSLIGDKAALTITGAQTEDEAIYFCALWYSNLWVFGGGTKVEIKRTVAAPSVFIFPPSDEQLKSGTASVVCLLNNFYPREAKVQWKVDNALQSGNSQESVTEQDSKDSTYSLSSTLTLSKADYEKHKVYACEVTHQGLSSPVTKSFNRGEC
notes: as for B3
In test [1], B4 had a dissociation constant (Kd) of 1.79 nM, a dissociation rate constant (koff) of 0.00047 s⁻¹ and an on-rate constant (kon) of 262000 M⁻¹ s⁻¹. Also, the EC50 in test [2] is 5.53 µg/mL and 42.5 nM.
